{"source": "patent US20040063697A1", "about": "“Compositions of cyclooxygenase-2 selective inhibitors and thrombolytic agents for the treatment or prevention of a vaso-occlusive event” (priority 2002, published 2004)", "origin": "cited, not measured here", "molecules": {"B1": {"name": "Tenecteplase: human derivative of t-PA (protein, UniProt P00750 36-562, looked up, variant T103N N117Q K296A H297A R298A R299A)", "Tissue-type plasminogen …": "SYQVICRDEKTQMIYQQHQSWLRPVLRSNRVEYCWCNSGRAQCHSVPVKSCSEPRCFNGGTCQQALYFSDFVCQCPEGFAGKCCEIDTRATCYEDQGISYRGNWSTAESGAECTNWQSSALAQKPYSGRRPDAIRLGLGNHNYCRNPDRDSKPWCYVFKAGKYSSEFCSTPACSEGNSDCYFGNGSAYRGTHSLTESGASCLPWNSMILIGKVYTAQNPSAQALGLGKHNYCRNPDGDAKPWCHVLKNRRLTWEYCDVPSCSTCGLRQYSQPQFRIKGGLFADIASHPWQAAIFAAAAASPGERFLCGGILISSCWILSAAHCFQERFPPHHLTVILGRTYRVVPGEEEQKFEVEKYIVHKEFDDDTYDNDIALLQLKSDSSRCAQESSVVRTVCLPPADLQLPDWTECELSGYGKHEALSPFYSERLKEAHVRLYPSSRCTSQHLLNRTVTDNMLCAGDTRSGGPQANLHDACQGDSGGPLVCLNDGRMTLVGIISWGLGCGQKDVPGVYTKVTNYLDWIRDNMRP"}}, "key": {"plasminogen": {"target": "plasminogen (Homo sapiens, UniProt P00747)", "sequence (P00747 20-810 limits assumed)": "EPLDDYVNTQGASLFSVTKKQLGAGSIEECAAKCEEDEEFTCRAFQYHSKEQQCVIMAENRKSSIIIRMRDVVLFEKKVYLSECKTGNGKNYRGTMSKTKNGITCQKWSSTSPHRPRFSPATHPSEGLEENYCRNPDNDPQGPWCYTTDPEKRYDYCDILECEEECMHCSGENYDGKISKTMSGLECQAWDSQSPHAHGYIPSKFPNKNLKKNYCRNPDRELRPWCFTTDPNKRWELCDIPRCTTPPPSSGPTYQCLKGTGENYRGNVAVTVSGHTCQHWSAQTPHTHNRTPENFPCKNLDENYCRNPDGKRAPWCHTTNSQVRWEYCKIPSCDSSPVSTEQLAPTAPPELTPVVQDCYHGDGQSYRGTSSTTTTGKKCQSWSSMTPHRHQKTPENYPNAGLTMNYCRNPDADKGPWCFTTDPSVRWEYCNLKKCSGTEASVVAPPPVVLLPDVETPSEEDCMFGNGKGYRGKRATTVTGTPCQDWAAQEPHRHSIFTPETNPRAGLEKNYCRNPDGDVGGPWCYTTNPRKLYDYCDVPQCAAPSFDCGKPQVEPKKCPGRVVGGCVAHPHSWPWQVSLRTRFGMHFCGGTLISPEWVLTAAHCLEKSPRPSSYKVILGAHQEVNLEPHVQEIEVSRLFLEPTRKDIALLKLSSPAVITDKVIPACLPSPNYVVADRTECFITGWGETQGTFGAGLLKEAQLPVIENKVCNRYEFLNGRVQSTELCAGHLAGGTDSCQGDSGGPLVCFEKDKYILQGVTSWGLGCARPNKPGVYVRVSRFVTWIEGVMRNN"}, "[1]": {"assay": "not given", "remark": "listed apart in the source"}}}
{"molecule": "B1", "values": [{"measurement": "Elimination", "setting": "in vivo", "value": "Hepatic"}, {"measurement": "Half-Life", "setting": "in vivo", "value": "20 to 25", "unit": "min"}, {"measurement": "plasma clearance time and half-life", "setting": "in words", "value": "lower plasma clearance time and a longer half-life"}, {"measurement": "Method of Plasminogen Activation", "setting": "plasminogen", "value": "Direct"}, {"measurement": "Antigenicity", "setting": "[1]; in vivo", "value": "No"}, {"measurement": "immune response", "setting": "[1]; when administered to a human", "value": "no immune response is elicited"}]}
